Measurements as given in a protein production outcome set (Wang et al. 2014).

experiment: label from the status in PepcDB records

Row | Sequence | protein production
1 | MLKYSNHMAFKDLREYIEFMKKKGKLIEVDDEVSVDLEIAEITRKATYAHLPPLLFKRVKNYENWKIVSNIFYSIESLYEIFGTNKLESISEGFLSNLSNMPITFFDKIKSLREILGLGKVMPKAKSPSFKEEKNLDLTKIPAIKTWPKDAGRYLTFSITITKDPETDVHNLSVYRVQILNEKEAIIHWQAFKRGALTAKKYLEKGISKIPIAVVTGVDPAIAFTAASPVPHGIDKYMFAGILRGEGIDVAELDNQLLVPSHSEVVLTGYVDLNDMRLEGPFGDHMGYYTPADYYPVFKLERVYIREDPIFHVTSVGKPPLEDAWIGKAVERIFLPFAKMLVPELIDMNLPEYGLFTGIGIFSIKKYYPGQAKRVMMALWGTGQLSLLKIIIVVDQDIDVHDINQVIYAIAANVDPKRDVWVIENALTDSLDPSVPFPPLGSKLGIDATRKFKEEMGKEWPEEVRSDEVVAKKADQILNKIIKRYQTSLEHHHHHH | failed
2 | MLLDYDFLLLLNDESGKPTRYYYLLQDFEKDFVAREVAQNKTKRFVKEIIGSEKASKTKNSAIEVSNTKASAMKNETIGSGDLKKVCEKIKSALPFGIISAFKPFKDAFYRDFNHNEQKLLIGAAKSGCIQSSADKLAQLKTRLLYWQDKSVKVDWDKPILIKDFFKGNNYLYRRFCFLLGKHFMDRFLKNNAKASVKDFMSSKEFVAKYRYTPKQNTERAKKLQSYLENKRDFIGFVQALNSLKDNPQDPFLPNEETSFLVFANEPTIVFNLRDYLLVLAQIFNQQAICYCESKCPIELINASPGKDFNKTQDSFPDIKFSTPNQLEQSLNALKNKLAAFFSKHPDKHNGMEFNEIAKTQIEALYMPQSSDGFDDFRKHLEESIKSFIRAKKNRYGFPKIFDVADIEQEERKVIEWREKERASKQSYKQNLQINKIANDLKRDKVVDKRTILSVIDADLDRGFIPPKDLLKQLEKISASLSKDIVIAIKQVEKLELSYALIDNIQHNTLDDTLDFTFIVGDSLSVQSLYVTFDLVIDMDRPMSEQFLNHIGELGSFESRERALEWVRLSQAKLIIETPREALKNAQLSQIEEILTGCIFNGAYRLQNDLKGNRHGNFK | failed
3 | MLLLHNARILDLTDGSTGEPTDVLLSDRVLALGPEAQQQAHSARVRSIDLGGRLLMPGLWDEHVHVGQWALASRRFLVSQTASCETALEEVATHVKRREGSDEPILQGFGFRPSLWGSNPNARQLDAVTGDRAVILVSADLHSSWCNTAAMRKLGIEGDGFLREQTSFDVQTQLSQVNPHVLDGWVGSCSTAAARLGITGIRDMEFSTDVETWLQRKADGRCPLRVEVSVYPERLDEAIAQVLATGQAPATDKPGPSRVAMGPLKVIVDGSMSTRTAWCMDSYPAGAGPDGAGIDSVTPEDLVDLMNRAKTGNLQCAAHAIGDRAAKEVLNAFEVTGISGSIEHAQVLTDADVRRFAALGVRASVQPLHLVDDRDATDVMWSDRADRCFRFADMVRAGTELALGSDAPVSPVDPWGAIRVAVERTGDRRPSWHPEQALTLSQAITASTRHVTQVVTGGPGDVIAVAHNPFDLSGNALAGITSDLTVVGGEVTAAAL | failed
4 | MLLLTPGPTPIPERVQKALLRPMRGHLDPEVLRVNRAIQERLAALFDPGEGALVAALAGSGSLGMEAGLANLDRGPVLVLVNGAFSQRVAEMAALHGLDPEVLDFPPGEPVDPEAVARALKRRRYRMVALVHGETSTGVLNPAEAIGALAKEAGALFFLDAVTTLGMLPFSMRAMGVDYAFTGSQKCLSAPPGLAPIAASLEARKAFTGKRGWYLDLARVAEHWERGGYHHTTPVLLHYALLEALDLVLEEGVAARERRAREVYAWVLEELKARGFRPYPKASPLPTVLVVRPPEGVDADRLVRALYAEGVAVAGGIGPTRGQVLRLGLMGEGARREAYQAFLKALDRALALA | not failed
5 | MLLLWLVVLVLGVAYLAHRRTPPAPALGISAAYLILMGVFSHAPGWLLLVFWLLWLAVALPLALPDLRRRVLSGPLFAWFQKVLPPMSDTEREAIEAGTVWWDGELFSGRPDWQKLLDYPKAQLTEEEQAFVDGPTEELCAMVSDWDIGQRMDLPEEAWAFIKQHGFFGLIIPKEYGGKGFSAFAHSQVVMKLATRSGDLASTVMVPNSLGPAELLLHYGTDEQRQRYLPSLAKGDDIPCFALTGPYAGSDAGGMTDVGIVCKGEWEGREVLGLRLTWEKRYITLGPVATLLGLAFKCHDPDHLLGDEEDLGITLALIPTDTPGVEIGRRHVPLGAAFMNGPNSGKDVFVPLEYIIGGQEMIGKGWMMLMNCLSVGRSISLPAVGTSAGKASSYVSGRYAQVREQFNVPIAAFEGIQEALARIGGNAWLMDSARILTANAVDLGEKPSVLSAILKYHLTERGRECIAHAMDIHGGKGIIMGPNNYLGRSWQGAPIFITVEGANILSRNLMIFGQGAIRCHPYVLKEMELAQREDKDQAAREFDALLVKHIGFAVGNAASSFLLSLSCGHLGNAPGDRISRPYFRALNRLAASFALLADFSMMLLGGELKRKERLSARLGDVLSYLYLGSAALKRYHDLGNPDYLHPLLRWAMEENLGKAEAALEDLLNNFPSRFFGCALKVLVLPFGRRHKGPGDELDAEIAEILGRPDDDPALQAILAGAFLPKDPQDPVGALAHAFDAVRESAALEKTLHKAIKEGRVQPQAGQNPIDAGAAAGVLSAEQAQALHQAEAARRKVIDVDDFAKEELQLADGRIR | failed
6 | MLLSHAFGLFTHPEDEWVSIKKEHEHPTRLYVAYVVVLAAIAPICAYISTAHFGWSIGSERLIKLTEISALQMSVLTYLAMLVGVFALGYAINWMAKTYGAKEEHVPSNGIALAAYSCTPLFLAGFALLYPVPWFNAVVFLAAACYGAWLMYDGLPIVMGIEKERAVMYGGALLTVALVILVSTRVGSVILWNLGLGPVFVSG | failed
7 | MLLSSCQSLFSPAYQSTLRPSDNPQTVEQVQKNDPRAQMGAREHPRIVASYGGEYRDAKTERLVARIAGALTAVSENPQQSYRITILNSPAINAFALPGGYLYVTRGLLALANDASEVAAVLSHEMGHVTANHGIERQRREEAEVIASRVVAEVLSSDLAGKQALARGKLRLAAFSRQQELQADVIGVRMLGEAGYDPYASPRFLDSMAAYARFSSADPENDQSLDFLSSHPNTPQRIELARRHARAFGQEGQVGDRGRDWFLDGIDGLLYGDSPQEGYVRGQTFLHGTLGIRFDVPEGFVIDNKVEAVLATGPGDMAIRFDGVADPKQTSLANYLTSGWVAGLLPETVKETQINGLEAATARASADKWDFDVTVIRVGQQIFRFLTAVPKGNTQLDSIANVLRTSFRKMTPQEIASLKPLRVRVVTVKPGETVATMAARMMGTERKLDMFRMINAMSATATLQPGQRVKIISELEHHHHHH | failed
8 | MLLTATLLGLIAALGILDGRLLGVSMIDRPLVMCALTGLVCGNLHEGILIGATLELIFLGNVAIGAAVPPDVVTGSVLATAFSIMSGRGPEAALTIAIPISMLAQTLGVLVRVVNARFGHMADRYAAQGNTRMVAVMHLGGPTLLYFLSGFLPVFFAILLGSAAVTWFLDAIPAFITNGLVVASKILPALGFALLISMMLSSKLMPYLGLGFLIAAYTKLDIIAIALFAVVLAFIISQFLNTSQQEG | failed
9 | MLLTIIYIIAITAEAMTGALSAGRRSMDWFGVILIACVTALGGGSVRDVLLGHYPLTWVKHPEYLVLTCCAALFTILIAKWMRHLRNIFLILDALGLIGFTIIGCQIALQMGHGFVVSAVAGVLTGVSGGILRDILCNDVPLVFRRELYASISFVAVICYWLCLNIGMSLELTVIFTLIFGFVLRLIAIYFGLEMPKFIYQEDDADSASSTDKH | failed
10 | MLLTREYIDKAFWQKLIAIGLPVSLQSMLFALLGVVDIFMVSLLGESATAAVGVGNRIFFFNLAVVFGLCGAVTVLASQYYGSGNMAGIRRTLAQSWCISILVTLPFIVLYAIFDEEIVSFMSDDPEYVTYARDYLVVTGFSLIATAIVVPIEAVLRSVGQTKLATNVSISAIVVNAVLNSVLIFGLFGFPQWGVFGAAVGTFVSRFFQTAVLIYFFYNRYAHLIPTKFDWAQGRLKQYRQKYFKVSLPMLVHDALWTGGLIVYSIIYGQLGVSELAIISFLSPIEGVLISTFMGFAVAASVLLGNDIGAKHYDRVEKTAWWYVLTSAILATLLFFLVWLSSPLIHHLLVLSPLTDAEMALNVCLVMALGMILRVFNMVGIGGVLKSGADIRYSIFIDTFGQWAIGIPLTYYTGMVLGLPLHFVLMSLLAEEFVKGVLTTYRIQSKRWINNMVEDDQTVTA | failed
11 | MLLYVLIISNDKKLIEEARKMAEKANLELRTVKTEDELKKYLEEFRKESQNIKVLILVSNDEELDKAKELAQKMEIDVRTRKVTSPDEAKRWIKEFSEEGGSLEHHHHHH | not failed
12 | MLMEIRESVKERIEEIIKEIAPQWEGEIELKETPDPKLGDFGTPIAFKLAKLLKRPPIEIAEKIVEKLKLNLPEGIKDVKAVNGYINVFIDYPHFARILINDILAKGDRFGSSEIGKGKKVIVEHTSVNPTKPLHMGHARNAILGDVMARILRFLGYEVEVQNYIDDLGIQFAQVYWGYLRLKEEFERIMNELRERGLKDNPIDHALGLLYVEVNRRLEDNPELENEIRDIMKKLESGELYGRKLAEEVVRAQMVTTYKLGVKYDLLVWESDIVRRKLFEIALELLSKNENFYIPSDGKYRGAFVMDLRKLFPDMKNPILVLRRSDGTATYTGKDIAYHLWKFGKIDVDLLYKEWDSTTWTTAPDGKSMPNKFGNANIVINVIGAEQKHPQLAIKYALQLLGFEDAAANLYHLAYEHVERPEGKFSGRKGTWVGFTVDEVIQEAVKRARELIEEKNPALSDEEKAEVAEKVGIGAIRYNLIKYSPDKKIIFRWEDVLNFEGESAPYIQYAHARCSSILRKAEEEGIKVDPETLFKNADFTKLSERERELVIMLSKFPRIVEQAGKDVKPHLIAWFANELASLFNKFYMDHPVLKAEEGVREARLLLVMAVEQVLKNALYLMGIEAPERM | not failed
13 | MLMEVKALAHAKNDSVAVATDDLKEGEEIQVAFLDNNEKTKITTAEVIPLGHKISLKDIKKGENVIEYGEVIGAATKDIKRGEHVHIHNIKSLRW | not failed
14 | MLMPRRMKYRKQQRGRLKGATKGGDYVAFGDYGLVALEPAWITAQQIEAARVAMVRHFRRGGKIFIRIFPDKPYTKKPLEVRMGKGKGNVEGYVAVVKPGRVMFEVAGVTEEQAMEALRIAGHKLPIKTKIVRRDAYDEAQ | not failed
15 | MLMSFILLISTSMILISVFSYVLIALIVLGIVLSLISLLSPRVSYVSSVYLIGLTVYLNPGFSLTQSLINTVPILGEINMLSGLLKTPVTSIISSLFSLALLNLGIKGYEIYLSKHADIVKLDSIIFSQHGLPKQANWNIVVNSEVKLLKSNEKLILSNTPEAKYELCPTLVDHKYYVPNKVTGLAFEGEVIRINYSPVDGVPYEKFRNCFTVFEVEGLPPDTSFVIEINGASLKLKDRKFAKLSLEPLYWKVNEIRISREDEEEIYEPDIKEGLTFRGGTVKINFRRKVIRYKTAKIPSIENWDPGIWVGQEVYGYRVIEVIGLGGNGYVMKVEKNGLLYAMKVLSVNKFTNSLEHFDNLLKESENLEKLSKDPRLVSIYGSFVDKNNIQSALAGDYTSYYKYPPAIIMEFMEGGTLFDLISRVDLVQSKYWQYIVKLVIKEIAKALTFLHKRGYVHLDVKPQNIFLKEKINGEPEVVYKILSSTPGIIKLGDLGSAVRVGEKITQATPAYSPPEQIEAVITGKGAQPSMDNYALGVTLYKLLTMKNLDYVNYLDKAFDEYIKGDPSIAMKYINMAKMSMVNFKPKLPHNTLPELANVVQGTLVVDPKRRLTSYDIVKILEG | failed
16 | MLNADVKETIHYVDENGKELAGTYTKDVHYTRTATVHYDQNGNATVTYGEWKADGSFDKVANPDIDGYFTLDKGVDGKTVTDPQNQADFVENVIYYKTDQNVTPLEHHHHHH | not failed
17 | MLNDGVYLAQARGMAGFVHAKLTVKDNKIVGVDLDLTTETPENKPKVEQQLKKEILTRQSADIDAVSGATFTSNGVKEAVQQTLKQAEKLEHHHHHH | not failed
